Earlier results in paper PMC6669380.

Target: SLP-76 RxxK motif (Homo sapiens) (UniProt Q13094)

- Kd: 14.5 nM
Substance: Gads C-terminal SH3 (from UniProt O75791)
